{"source": "paper PMC1560149", "about": "“The DNA polymerase activity of Pol ε holoenzyme is required for rapid and efficient chromosomal DNA replication in Xenopus egg extracts” (BMC Biochemistry, 2006)", "biological_target": "T1, p17 (the fourth subunit of xPol ε complex) (Xenopus, UniProt Q6WSQ3 1-147)", "T1 construct": "p17 subunit of Xenopus DNA polymerase epsilon, 147 amino acids; also called xPol ε p17; source: sf21 insect cells, baculovirus, co-expressed, in crude extract", "T1 sequence (looked up)": "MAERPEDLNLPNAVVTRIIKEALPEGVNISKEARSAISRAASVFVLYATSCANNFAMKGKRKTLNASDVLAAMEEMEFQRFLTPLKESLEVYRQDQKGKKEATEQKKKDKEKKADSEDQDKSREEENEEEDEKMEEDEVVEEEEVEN", "assay": "not stated; data not shown; p12 and p17 in insect cells"}
{"binder": "p12 (the third subunit of xPol ε complex) (natural protein, Xenopus, UniProt Q0EAE6 1-116, looked up, p12 subunit of Xenopus DNA polymerase epsilon, 116 amino acids; also called xPol ε p12; source: sf21 insect cells, baculovirus, co-expressed, in crude extract) MAAEVAAPESLEGSGSQEDAGPSSPPAAHPAPCPSKQARLPLSRIKALMKADPDLSLASQESVFVISKATELFIETIAKDAYLYAQQGKRKTLQRKDLDNAIDAIDEFAFLEGTLD", "values": [{"measurement": "stoichiometry N", "result": 1}]}
